Experimental data reported in US20200147231A1 (NATIONAL CANCER CENTER JAPAN, published 2020).

T1: insoluble fibrin (fibrinogen from human plasma, immobilised on a plate and treated with thrombin) (human, UniProt P02671 36-629; P02679 27-437)
T1 construct: Plasma-derived material; also called fibrin plate; insoluble fibrin plate
T1 sequence 1: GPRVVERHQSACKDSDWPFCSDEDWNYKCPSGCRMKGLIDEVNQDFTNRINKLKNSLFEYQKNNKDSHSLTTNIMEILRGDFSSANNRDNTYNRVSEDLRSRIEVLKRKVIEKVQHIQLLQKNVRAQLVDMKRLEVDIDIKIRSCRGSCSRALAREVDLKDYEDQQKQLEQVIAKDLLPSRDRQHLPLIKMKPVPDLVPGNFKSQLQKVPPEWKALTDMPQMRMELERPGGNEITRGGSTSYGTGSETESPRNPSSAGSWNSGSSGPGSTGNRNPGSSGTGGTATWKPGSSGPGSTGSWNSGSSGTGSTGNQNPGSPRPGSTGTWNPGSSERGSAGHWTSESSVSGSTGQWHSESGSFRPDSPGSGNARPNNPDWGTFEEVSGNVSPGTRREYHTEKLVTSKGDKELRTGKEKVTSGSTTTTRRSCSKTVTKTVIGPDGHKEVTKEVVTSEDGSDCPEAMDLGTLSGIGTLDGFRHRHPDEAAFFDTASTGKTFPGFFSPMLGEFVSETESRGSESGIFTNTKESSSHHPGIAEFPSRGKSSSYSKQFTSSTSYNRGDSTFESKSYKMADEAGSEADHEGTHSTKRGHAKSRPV
T1 sequence 2: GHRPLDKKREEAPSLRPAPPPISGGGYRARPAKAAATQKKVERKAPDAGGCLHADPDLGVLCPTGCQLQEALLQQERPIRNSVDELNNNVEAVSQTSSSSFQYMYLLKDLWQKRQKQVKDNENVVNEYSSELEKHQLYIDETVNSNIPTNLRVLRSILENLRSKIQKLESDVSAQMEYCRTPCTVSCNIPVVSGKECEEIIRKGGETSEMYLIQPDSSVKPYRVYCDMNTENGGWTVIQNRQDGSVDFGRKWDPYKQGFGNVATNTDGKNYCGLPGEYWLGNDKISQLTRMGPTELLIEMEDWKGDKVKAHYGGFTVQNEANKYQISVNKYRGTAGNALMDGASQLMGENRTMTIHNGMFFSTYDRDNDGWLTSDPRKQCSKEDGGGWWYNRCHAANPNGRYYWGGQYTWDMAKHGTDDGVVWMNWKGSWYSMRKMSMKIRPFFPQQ
T1 sequence 3: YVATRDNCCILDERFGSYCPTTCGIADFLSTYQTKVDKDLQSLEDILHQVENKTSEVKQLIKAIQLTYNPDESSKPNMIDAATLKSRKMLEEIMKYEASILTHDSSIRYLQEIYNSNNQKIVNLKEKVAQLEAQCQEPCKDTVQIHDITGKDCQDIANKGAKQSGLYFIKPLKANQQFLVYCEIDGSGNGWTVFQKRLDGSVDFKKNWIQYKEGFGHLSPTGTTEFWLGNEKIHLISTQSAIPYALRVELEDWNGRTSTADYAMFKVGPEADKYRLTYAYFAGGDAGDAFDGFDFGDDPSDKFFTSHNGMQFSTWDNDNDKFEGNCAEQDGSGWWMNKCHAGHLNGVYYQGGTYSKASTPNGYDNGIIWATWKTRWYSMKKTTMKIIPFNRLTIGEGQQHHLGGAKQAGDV


Experiments:
[1] = target: peptide of the epitope site of 102-10; experiment: SPR (Biacore T200), peptide immobilised on CM5, antibody as analyte, multi cycle kinetics
[2] = target: T1, insoluble fibrin (fibrinogen from human …); experiment: ELISA on the human fibrin plate (coated fibrinogen treated with thrombin), HRP secondary antibody, absorbance at 450 nm
Experimental: In advance of the ELISA, an antigen-immobilized plate was prepared. Fibrinogen from human plasma (SIGMA) was dissolved in TBS (pH 8.5) to produce a 20 μg/mL fibrinogen solution. The solution was added to a 96-well immunoplate at 50 μL/well and was left to stand at 4° C. overnight to prepare a fibrinogen plate. Thrombin diluted to 0.05 NIH U/mL with a thrombin diluent [7 mM L-cysteine (FUJIFILM Wako Pure Chemical Corporation), 1 mM CaCl₂ (FUJIFILM Wako Pure Chemical Corporation), TBS (pH 8.5)] was added to the fibrinogen plate at 100 μL/well and was incubated at 37° C. for 2 hours to prepare a fibrin plate. The plate on which each antigen was immobilized was washed with 200 μL of PBS-T (PBS, 0.5% (v/v) Tween 20) three times, and 200 μL of a blocking solution [PBS-T, 1% (w/v) BSA] were added to each well, followed by being left to stand at room temperature for 1 hour for blocking. The samples serially diluted with PBS were added to the plate at 50 μL/well and were left to stand at room temperature for 1 hour. The solutions were discarded, and the plate was washed with PBS-T three times. A secondary antibody diluted to 0.3 μg/mL with the blocking solution was added to the plate at 50 μL/well, followed by being left to stand at room temperature for 30 minutes. […]

| Kd [1] | koff [1] | kon [1] | binding result [2] | Binder |
| --- | --- | --- | --- | --- |
| 32.6 nM | 0.000585 s⁻¹ | 18000 M⁻¹ s⁻¹ |  | antibody obtained from clone 99-5 (antibody, V domains shown) VH: QIQLVQSGPELKKPGETVKISCKASGYTFTNYGMNWVKQAPGKGLKWMGWINTKIGEPTYAEEFKGRFAFSLETSASTAYLQINNLKNEDTATYFCARLLDYWGQGTTLTVSSAKTTPPSV VL: GDIVLTQSPASLAVSLGQRATISCRASESVDSYGNSFMHWYQQKPGQPPKLLIYRASNLESGIPARFSGSGSRTDFTLTINPVEADDVATYYCQQSNEDPRTFGGGTKLEIKRADAAPTVS |
|  |  |  | binds | antibody obtained from clone 99-5 (antibody, V domains shown, also called antibody 99) VH: QIQLVQSGPELKKPGETVKISCKASGYTFTNYGMNWVKQAPGKGLKWMGWINTKIGEPTYAEEFKGRFAFSLETSASTAYLQINNLKNEDTATYFCARLLDYWGQGTTLTVSS VL: DIVLTQSPASLAVSLGQRATISCRASESVDSYGNSFMHWYQQKPGQPPKLLIYRASNLESGIPARFSGSGSRTDFTLTINPVEADDVATYYCQQSNEDPRTFGGGTKLEIKR |
| 66.8 nM | 0.00325 s⁻¹ | 93700 M⁻¹ s⁻¹ |  | antibody obtained from clone 1101 (antibody, V domains shown) VH: EVQLQQSGTVLARPGASVKMSCKASGFSFTSYWMHWVKQRPGQGLEWIGAIYPGNSDTRNNQKFKGKAKLTAVTSANTAYMELSSLTNEDSAVYYCTRKAHYGNYGFAYWGQGTLVTVSAA VL: DIQMTQSSSYLSVSLGGRVTITCKASDHINNWLAWYQQKPGNAPRLLISGATSLETGVPSRFSGSGSGKDYTLSITSLQTEDVATYYCQQYWSTPLTFGAGTKLELKRADAAP |
|  |  |  | binds | antibody obtained from clone 1101 (antibody, V domains shown, also called antibody 1101) VH: EVQLQQSGTVLARPGASVKMSCKASGFSFTSYWMHWVKQRPGQGLEWIGAIYPGNSDTRNNQKFKGKAKLTAVTSANTAYMELSSLTNEDSAVYYCTRKAHYGNYGFAYWGQGTLVTVSA VL: DIQMTQSSSYLSVSLGGRVTITCKASDHINNWLAWYQQKPGNAPRLLISGATSLETGVPSRFSGSGSGKDYTLSITSLQTEDVATYYCQQYWSTPLTFGAGTKLELKR |
